Laboratory results: a protein production outcome set (Wang et al. 2014)

Assay: label from the status in PepcDB records
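Further: failed if final PepcDB status was selected cloned or expressed and not failed if soluble or beyond.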

Sequence: MKLDLARKRPSLLARLWLRLGALLGRTLLLLLVIGLLGWALSSAWFAWHHRGPVAVQEQVPADEAARTQDIIQTAVRIVDQHREGTRYLRDAHAKAHGCVKAQVQVLNDLSPPLRQGVFATPGQTWQAVVRLSNGNAYPQFDSIRDARGMAIKLLDVPGQQLMASESQRREQDFVMFNHPNFFVSDVAEYQQNIAAQADGKKVGAFFPGWDPRTWQVRHLFIALATLSPAPASPTQTTYYSVSPYKFGNANAKFRVMPDPESCPAYSLPAQNQDLPNFLRSALTQQLSTDRVGACFVLQVQRQDPNRFMPIEDTSIEWKESDAPFETVARVTLPAQDFDTPAQNLACDNQSFNPWFGLEAHRPIGGINRLRKAVYEAVSDYRHSRNAEQ
- protein production: failed

Sequence: MKLENQSETTANIQLNAPELVEANIAEVTSITIEKFLGSFTSVTRLLLNLSPLKNFHKDGLVSGKWNEPKDVPECLLSQLETFVWRRLDWGREEEKEIATYILKNGRRLKKETFTTNPIESEGLNKLKERLKVLNGLDGVQAPLFRKDGVVVGKWNQPKNVPQCLLSHLETFVWTRYRWEREEEKEEATYILKNARLLSKATFSTNIIDLKEFHWFKK
- protein production: failed

Sequence: MKLFKRISFILIVLYILIVPVQHVSAHAYLENSNPADQSHIKTAPEKVTLVFNEEIEADFPLIEVKDSSGKRVETGKTSVSKKNNHMVEASLPAELKADVYSVSWRVVSADGHAVTGIISFKLGDTKATFQESEVPSSGADLQISSIQKAILYIGFSLFIGVLVFGLGLYPRKEQISEKISGRLKKVTWIALALLGVALFMQLFVQTSITTGVSISESFGPSKLAAFLTTKTGYIWISEFIVWLLLAIFTIMMFFKNKQWSWFALLTESALIGYLIFAKAQNGHAAASADKIVSITADMLHMIAASVWVGGILVLLFVLPKTGKAREIWSRFAIVAIIAVASILVSGLLMAVMNIGQMSNLFTTNYGKILLFKIGLFLLMALLGLGHYIYLKLKNKKLPFKTILIELIIGTIILIVASVLTNVQTPPPPAPKAFDETIAAKGENAKINLRVEPATVGQNQFIITFTSADGATKTDFEQVTITTKSTKTDEKATFQAKLANENQYFAEGLYINQTGKWEITVHGLTKDFTDINQTFTTNITQ
- protein production: failed

Sequence: MKLGFIGFGEAASAIASGLRQAGAIDMAAYDAASAESWRPRAEELGVSCKASVAEVAGECDVIFSLVTAQAALEVAQQAGPHLCEGALYADFTSCSPAVKRAIGDVISRHRPSAQYAAVAVMSAVKPHGHRVPLVVDGDGARRFQAAFTLYGCRIEVLDGEVGGAALLKMCRSAVLKGLEALFLEALAAAEKMGLADRVLASLDASFPEHHLRDLALYLVERNLEHADRRAHELGEVAATLCSVGVEPLVAEAGYRRLTRVAQVRAALKQRPGDVRAWLRSLANAEDA
- protein production: not failed

Sequence: MKLGKAQSLEDVAGLVGACAVTILAVIIISALYVGREVFVPVALAILLSFVLARPVNFLQSLRVPRAIAAISTVLFAFAVIFALGSLIATQLSRLADDLPQYQSTIQSKITSLRGVTGGSTTLERAEGMLQNLSKELNKPKNAPAPSLSNPPTSSSRPVTPVPVEVLQPDPGTLANLRSLIAPLISPLATTGIIVIFVIFILLQREDLRNRLIRLAGTRDLQRTTAALDDAASRLSRLFLNQLLINSGFGVLIGTGLWIIGVPSPALWGILAAVLRFVPYIGSIISAAFPLTLAVAVDPGWSMLVWTAILFFVIEPAIAHVVEPMVYGRSTGLSPVAVVISATFWTALWGPIGLVLATPLTVCLVVLGRHVERLAFLDVMFGDRPALSPPEIFYQRMLAGDPAEAAEKAEQFLKERSLSSYYDDVALKGLQLAQADLDRDALDAVRLTRIKETVQEFTEDLTDEIDQAPDGDEATTDAEAAAAVEVTPVDHADDDIAVLKPADLKPGWQGAAPVMCIGGRSQLDEAAALMLAHLCRVHGIGARVEPSSALSTKNIFGLDVSNVALICLSYLEASNTTHIRYAVRRLRRKAPHAKIIVALWSAETPQLADTNESAQADATVLTLRDAVKYCVEEAIIEPPPQTIEMPVISEAV
- protein production: failed

Sequence: MKLGYSLSKSNAKNFKFYINGSAMGYKNIIINGAKSWNASPYLNTVSKGRDANPHFIISSSTIDRGATVAVCETWAYKGSKLVAKNEITTFKAFRSLSVGDKTETIAHEFGHGLGLGHVKTKNAIMLDVGFTKKIKPQRDDLNGIKAIYKLEHHHHHH
- protein production: failed

Sequence: MKLHLEIWRQAGPNSEGHFEPIDVNDAVPQMSVLELLDHVNTGLIEEGKEPFVFASDCREGICGTCGLLVNGRPHGLDKNKPSCQQRLDHVPDGSTLKIEPLRSAAYPVVKDLLVDRSALDRVLEKGGFVSINAGTAPDADTLHQNHESAELALDH
- protein production: failed

Sequence: MKLIAAGLTLIFLGFILLFLGVVLQVQTPQTTTSSSPQFAGLVLLGPIPIAFGNVPPSVLSNLIIVGVVFTIIMLIIYLIMFIIGRKTTRAPF
- protein production: failed

Sequence: MKLIGITGMPGSGKSAITKLAEKYKIVVVSMGDVVRYETLKQGMPLNPENVGNTAVKLREIYGKEAIAVPCLNYVNEKYNNEDFVIIEGIRSIYEVNYIKKHAELDIIAIHSSPKTRFERLSGRNREDDSNDWNTFVERDERELNFSIGRVISLADYMVVNEGNYMDFVNDLENTFKKIINVN
- protein production: not failed

Sequence: MKLIIAIVQDKDSNRLSSQFIEANVRATKLSTTGGFLRSGNTTFMIGIDDDRVDEVLAMIKETSHAREQFMTPPVNLDVTMDGAAAYPVEVQVGGATVFVLPIEQFHQF
- protein production: failed

Sequence: MKLIVAIVRPEKLNEVLEALFQAEVRGLTLSRVQGHGGETERVETYRGTTVKMELHEKVRLEIGVSEPFVKPTVEAILKAARTGEVGDGKIFVLPVEKVYRIRTGEEDEAAVTPVQ
- protein production: not failed

Sequence: MKLKHKRDDKMRFDIKKVLELAEKDFETAWRETRALIKDKHIDNKYPRLKPVYGKPHPVMETIERLRQAYLRMGFEEMINPVIVDEMEIYKQFGPEAMAVLDRCFYLAGLPRPDVGLGNEKVEIIKNLGIDIDEEKKERLREVLHLYKKGAIDGDDLVFEIAKALNVSNEMGLKVLETAFPEFKDLKPESTTLTLRSHMTSGWFITLSSLIKKRKLPLKLFSIDRCFRREQREDRSHLMSYHSASCVVVGEDVSVDDGKVVAEGLLAQFGFTKFKFKPDEKKSKYYTPETQTEVYAYHPKLGEWIEVATFGVYSPIALAKYNIDVPVMNLGLGVERLAMIIYGYEDVRAMVYPQFYEYRLSDRDIAGMIRVDKVPILDEFYNFANELIDICIANKDKESPCSVEVKREFNFNGERRVIKVEIFENEPNKKLLGPSVLNEVYVYDGNIYGIPPTFEGVKEQYIPILKKAKEEGVSTNIRYIDGIIYKLVAKIEEALVSNVDEFKFRVPIVRSLSDINLKIDELALKQIMGENKVIDVRGPVFLNAKVEIK
- protein production: not failed

Sequence: MKLKILLLTILTLGAMTVHAQKITGDWKGMLSIPQANMELELIFHITGEGADLSTTMDVPAQGATGIPVEKTSFADGKLTLSAAALQFTFKGTLSGNTIEGNVEQMGFSLPLTLQRFESKLPGNTALPSTEEELKALAALDKGNYKYKVEDYFAKPKASAFQLSPNGKYLSYMEKDDAGKRHVYVKEIATGTVKRAIEEKDELIKGYGWINDERLFFVMDKGGNENYHLFASNIDGSNTRDLTPFDGVKASILNMLKEQKDYMIISMNKNNPQIFEPYKLNVVTGELTQLYENKDAANPIQGYEFDKDGELRGYSRLVNGIESELYYKDLATGEFRLLKKTHWDDTFGVIAFNYASKNKDEAYVLTNLDSDKTRIVLYDLKQNKIIREIFANEDYDVSGLHLSRKRNYEIDLMAYEGEKSVVVPVSATYKELHKLMEKEFKGKEFSVVDYDDDETILLIAVQSDKLYGTYYQFDTRTKKFTLLYDLMPQLKEEDMAEMRPIKFKSRDGLTIHGFITLPKAALEGKKVPLIVNPHGGPQGIRDSWGFNPETQLFASRGYATLQVNFRISGGYGKEFLRAGFKQIGRKAMDDVEDGVRYAISQGWVDPDRIAIYGASHGGYATLMGLVKTPDLYACGVDYVGVSNIYTFFDSFPEYWKPFKEMVKEIWYDLDNPEEAAIAKEVSPFFQIDKINKPLFVVQGANDPRVNINESDQIVTALRARGFEVPYMVKYNEGHGFHREENSMELYRAMLGFFAKHLKK
- protein production: failed

Sequence: MKLLLALMLFMTFFAHAADPEPGSQYLQAAEAGDRRAQYFLADSWLSYGDLNKAEYWAQKAADSGDADACALLAQIKITNPVSLDYPDAKKLAEKAANAGSKVGEITLARILVNTQAGRPDYPKAISLLQKASEDLDNDSAVDAQMLLGLIYANGVGIAADDEKAAWYFKRSSAISRTGYSEYWAGMMFLNGEPGFIEKNKQKALHWLNLSCLEGFDTGCEEFETLTNG
- protein production: failed

Sequence: MKLLLVGEVRDGRVTAETAELFGFAACFSAEVSMVLAGSTDDLPSFEGKLYRADGVNAFDLACHKRLVLAAVEREQPDAVVFLHSSHGWELAPRVAFAMQSAQVSGVVGLDDGGYVVESCNGKMRRTVKPLTDRVVLTLQLGAFDAPAMAGIPEVTALDVEPDSTIEFLDCVQPERGIDLTRAGVIVSAGRGVGSAERVELVRALADALGGEVGASRPVVDAGWLERARQVGSSGQSVSPALYVACGISGAIQHLAGMKGSGFVLAINTDRDTPITSVADVLAVADVAEFLSALTAAIRARR
- protein production: failed

Sequence: MKLLREMLIVVFIYFLGEFISKSFIHSVPGNIIGMLILLVLLCTKVVKVESIDCVAQFFLDHLAFFFVPAGVGLMTSVGLLEGNVLKLLFICIASTFVVIGVTGLVVQALIRRKEKKLLGDEVNE
- protein production: failed

Sequence: MKLLVVDDSSTMRRIIKNTLSRLGYEDVLEAEHGVEAWEKLDANADTKVLITDWNMPEMNGLDLVKKVRSDSRFKEIPIIMITTEGGKAEVITALKAGVNNYIVKPFTPQVLKEKLEVVLGTND
- protein production: failed

Sequence: MKLMDVHVLFSGGKDSSLSAVILKKLGYNPHLITINFGVIPSYKLAEETAKILGFKHKVITLDRKIVEKAADMIIEHKYPGPAIQYVHKTVLEILADEYSILADGTRRDDRVPKLSYSEIQSLEMRKNIQYITPLMGFGYKTLRHLASEFFILEEIKSGTKLSSDYEAEIRHILKERGESPEKYFPEHKQTRVVGLKKEI
- protein production: not failed

Sequence: MKLPHALSHWFPHKYAIDAKRLGDERTLAWSNLGYWADTSDYKTACRQLADGLADAVQLSSTDRLLDLGCGQGASLQHWVEHYQIQSLCAVELQLDHVKRIQHAFPQLEKMIQGSFLDLRPDTFKPHFDVVMCIDAAYHSALTSFLTAVGSVLKSKGRLGFHYLLLSEKWTQLPVWQRQKYKYLLKAADVELDDLADVTTTEHTLRAQGFDQIQIVDMTTDVFGGFARYMASRPYHSKQNIDERKIRATAKLCQYLCDQGIVRYVQIAATKQ
- protein production: failed
